Measurements reported in the RNAGym collection of RNA variant scans (doi:10.7554/elife.80360).

B1: HDV Ribozyme (parent)
chain: GGCCGGCAUGGUCCCAGCCUCCUCGCUGGCGCCGGCUGGGCAACAUUCCGAGGGGACCGUCCCCUCGGUAAUGGCGAAUGGGACCCA

Variants of: B1
Assay: self-cleavage, relative activity (ratio to wild type); higher = more cleavage; co-transcriptional

Row | Variant | self-cleavage
1 | C15U U37A | 0.196
2 | C41A G50A | 0.957
3 | U23G G35U | 0.283
4 | G17A A71C | 0.151
5 | C3U C61U | 0.923
6 | G53C C58A | 1.06
7 | A42C C57U | 0.203
8 | C7A | 0.644
9 | G25U C64G | 0.154
10 | U23G G35C | 0.0639
11 | C36U C58A | 0.964
12 | C13G G68A | 0
13 | G40U G68C | 0.443
14 | C3U U79G | 0.489
15 | C41G G74A | 0.486
16 | C22G U37G | 0.0831
17 | U69A U72A | 0.609
18 | G50C C62A | 0.475
19 | C13U G39C | 0.0369
20 | C41G A77U | 0.185
21 | C41U U65A | 0.92
22 | C66G A70U | 1.08
23 | G1U C4U | 0.251
24 | C26G C44A | 0.554

Row | Variant | self-cleavage
25 | C44G G81A | 0.277
26 | G40C A56U | 0.381
27 | G10C G29A | 0.032
28 | U46G G67C | 0.208
29 | G34U G52C | 0.101
30 | C22A G52U | 0.32
31 | C21A G53C | 0.0639
32 | C30G G39U | 0.0692
33 | C26U C57U | 1.05
34 | U12G C22G | 0
35 | G29U G81A | 0.12
36 | C15A A71C | 0.35
37 | U12A U79C | 0.166
38 | G2C G10U | 0.056
39 | U23C C48G | 1.05
40 | G54C C57A | 0.937
41 | C24G G76C | 0.219
42 | G5C A70G | 0.158
43 | C19A U72G | 0.095
44 | U20C G54A | 0.145
45 | A70C C85U | 1.07
46 | G39A A43G | 0.0707
47 | G10C G76A | 1.2
48 | G2C C75G | 0.0314

Row | Variant | self-cleavage
49 | C33U U37G | 0.0462
50 | U69A G76C | 0.906
51 | G10A A56U | 0.845
52 | A70U G73A | 0.614
53 | G38U A70C | 0.158
54 | G25U C84A | 0.222
55 | A45G C48G | 1.23
56 | C14U A71U | 1.1
57 | G50A C63G | 0.0475
58 | C21A G55U | 0.0554
59 | C13A U47G | 0.138
60 | A78C G81A | 0.17
61 | G11A C21G | 0.04
62 | A43U C49G | 0.516
63 | G28C C64U | 0.198
64 | G80C G82A | 0.0824
65 | A51C G55U | 0.944
66 | C66A A77U | 0.776
67 | C61G G73C | 0.264
68 | G10A G82A | 0.176
69 | G40C U79A | 0.19
70 | C64G | 0.954
71 | G55U U69C | 1
72 | G34A U46A | 0.121

Row | Variant | self-cleavage
73 | U72A G80C | 0.219
74 | G10A C62U | 0.898
75 | G59A C75G | 0.177
76 | U27G U46C | 0.997
77 | C48A C75A | 0.326
78 | U20C A83C | 0.133
79 | G39A G80A | 0.229
80 | G5C C75G | 0.123
81 | C24A U79C | 0.12
82 | C44G C64G | 0.678
83 | U27C A45C | 0.237
84 | G74C C75U | 0.108
85 | C4U C19G | 0.0268
86 | A43C C48U | 0.619
87 | C15G U23G | 0.415
88 | G38U G73A | 0.149
89 | C15U G17A | 0.604
90 | C18A C86G | 0.185
91 | G5C G28C | 0.208
92 | C24G A71U | 0.106
93 | C21G U79A | 0.0875
94 | C13G G40U | 0.104
95 | G25A G55U | 0.128
96 | G55U G73C | 0.499

Row | Variant | self-cleavage
97 | G68U U72A | 0.277
98 | G25C G81A | 0
99 | G29U C44A | 0.0297
100 | G6C G74A | 0.0875
101 | G6C C66A | 0.201
102 | G5C G38A | 0.199
103 | C57U G74C | 0.208
104 | C33U C41A | 0.7
105 | G29U A56C | 0.202
106 | C18A C41A | 0.125
107 | G40C G68A | 0.201
108 | C4U A78G | 0.375
109 | C58U C61A | 1.21
110 | C7G C64G | 0.111
111 | C13A C63U | 0.0627
112 | G17U C66U | 0.469
113 | G28A C49A | 0.111
114 | C13G A77G | 0.199
115 | A56G C75G | 0.175
116 | C4G G25A | 0.0256
117 | C75G A78C | 0.151
118 | G52U G80U | 0.312
119 | G1U C30G | 0.282
120 | U79A C86A | 0.688

Row | Variant | self-cleavage
121 | G40C A43C | 0.123
122 | A43U G54U | 0.432
123 | C58U U72A | 0.58
124 | C62U C66G | 0.746
125 | C36A A43U | 0.198
126 | C30G G50A | 0.0733
127 | G38U G53A | 0.369
128 | G28C C84U | 0.0396
129 | C41U A51G | 0.914
130 | G28C A87C | 0.0987
131 | A16U C19U | 0.122
132 | C32G C86G | 0.119
133 | C4U U20A | 0.0554
134 | G34U G81U | 0.18
135 | U12A C61G | 0.158
136 | A45C U60A | 0.883
137 | G6C C61G | 0.222
138 | U47C G73A | 0.464
139 | C36A A43C | 0.095
140 | U23G A51C | 0.63
141 | G11C G81A | 0
142 | G5A C33A | 0.219
143 | C22A G28A | 0.148
144 | C15A G25C | 0.0692

Row | Variant | self-cleavage
145 | G50U G59C | 1.14
146 | C21G G52U | 0.117
147 | C26U C44A | 1.03
148 | C44A G73A | 0.577
149 | C14G U27A | 0.7
150 | G29U G74C | 0.137
151 | C24G C75U | 0.0554
152 | G39C | 0.245
153 | U69G G73C | 0.665
154 | G31C G55U | 0.338
155 | A8U G35A | 0.426
156 | A8G C30A | 0.237
157 | A56C | 1
158 | U12C C85U | 0
159 | G54A G81A | 0.511
160 | U9G G11U | 0.532
161 | G53U U65G | 0.831
162 | G11U C66A | 0.31
163 | G52U C57U | 1.24
164 | G52A | 1.02
165 | C66A C85A | 0.939
166 | G35C U60C | 0.237
167 | G1U G29C | 0.292
